Substitutions are numbered along the chain they refer to.
B1: TM-72 (antibody, V domains shown)
VH: QVQLQQPGAELVKPGTSVKLSCKASGSTFTNYWMHWVMQRPGQGLEWIGNIDPSDSDTHYNQKFKDRAKLTVDKSSSTAYMQLSGLTSEDSAVYYCARSRGGYYDYGEAMDYWGQGTSVTVSS
VL: DIVMTQAAPSVPVTPGESVSISCRSSKSLLHTNGNTYLFWFIQRPGQSPHLLIYRKSNLASGVPDRFSGSGSGTAFTLRISRVEAEDVGVYYCMQHLEYPFTFGSGTKLEIK
notes: Purified from mouse hybridoma
B2: TM-56 (antibody, V domains shown)
VH: QVHLQQSGAELAKPGASVKLSCKASGYTFTSYWMHWVKQRPGQGLEWIGYINPSSGYSKYNQRFKDKATLTADKSSTTAYMHLSSLTYADSAVYYCTREGGSISDWYFDVWGTGTTVTVSS
VL: B1 VL with V3E, H31Q, T32N, F39Y, I42L, S48P, H50Q, K56M, F101Y, S105G
notes: Purified from mouse hybridoma
B3: TM-59 (antibody, V domains shown)
VH: B2 VH with H3Q, T30I, I51V, S58T, Y60N, R63K, T77S, H82Q, A89E, T97A
VL: B1 VL with T32S, L38S, F39Y, I42L, H50Q, K56M, F101Y, S105G
notes: Purified from mouse hybridoma
B4: TM-73 (antibody, V domains shown)
VH: QVQLQQPGAELVKPGASVKLSCKASGYTFTSHWMHWVKHRPGQGLEWIGEIDPSDSYTYYNQKFKGKATLTVDKSSSTVYMQLSSLTSEDSAVYYCARNYHGSGPPFAHWGQGTLVTVSS
VL: QIVLTQSPAIMSASPGEKVTLTCSASSGISYIYWYQQRPGSSPRLLIYDTSNLASGVPVRFSGSGSETSYSLTISRLEAEDAATYYCHQWRSYPPTFGGGTKLEIR
notes: Purified from mouse hybridoma
B5: TM-65 (antibody, V domains shown)
VH: QVQLQQPGAEFVKPGASVRLSCKTSGYTFTSSWMHWVKQRPGQGLEWIGEINPKNGGTNYNEKFKTKATLTVDKSSNTAYMQLSSLTSEDSAVYYCTIPTWFTYWGQGTLVTVSS
VL: DIQMNQSPSSLSASLGDTITITCRASQNINIWLSWYQQKPGNVPKLLIYKASNLHTGVPSRFSGSGSGTGFTLTISSLQPEDIATYYCLQGQSYPYTFGGGTKLGIK
notes: Purified from mouse hybridoma
B6: TM-66 (antibody, V domains shown)
VH: EVMLVESGGALVEPGGSLKLSCAASGITFSNYAMSWIRQTPEKRLEWVATIGSVGSYTYYPDSVKGRFTISRDNARNTLYLQMSSLRSEDTAMYYCARQEGSSHFDYWGQGTTLTVSS
VL: DVVVTQTPPSLPVSFGDQVSISCRSSQSLVNSYGKTFLSWYLHKPGQSPQLLIYGISNRFSGVPDRFSGSGSGTVFTLKISTIKPEDLGMYYCLQGTHPPLTFGAGTKLEMK
notes: Purified from mouse hybridoma
B7: TM-82 (antibody, V domains shown)
VH: QVQLQQSGAELVRPGTSVRVSCKASGYAFTNYLIEWIKQRPGQGLEWIGVINPGSGITDYSEKFKGKARLTADKSSSTAYMQLSSLTSDDSAVYFCTRSPFITTVVADYWGQGTTVTVSS
VL: DVVVTQTPLSLPVSFGDQVSISCRSSQSLANTYGNTYLSWYLHTPGQSPQLLIFGISNRFSGVPDRFSGSGSGTDFTLKISTIKPEDLGVYYCLQGTHPPRTFGGGTKLEMK
notes: Purified from mouse hybridoma
B8: TM-62 (antibody, V domains shown)
VH: QVQLQQPGTELVRPGSSVKLSCKAAGYTFTRYWMHWVKQRPIQGLEWIGNIDPSDSETQYNPKFKDKATLTVDRSSSTAYMHLSSLTSEDSAVYYCARLTTLDYAMDYWGQGTSVTVSS
VL: QIVLTQSPAIMSASPGEKVTISCSASSSVSYMYWYQQKAGSSPKPWIHRTSNLASGVPARFSGSGSGTSYSLTIRSMEAEDAATYYCQQYHSYPPTFGVGTKLELK
notes: Purified from mouse hybridoma
B9: TM-63 (antibody, V domains shown)
VH: QVQLQQPGAELVKFGASVKLSCKASGYTFTSFWMHWVKQRPGQGLEWIGNIDPSDSETHYSQKFKDKATLTVDRSSNTAYIQLSSLTSEDSAVYYCARSSNWDNFDYWGQGTTVTVSS
VL: DIVMTQASPSVSVTPGESVSISCRSSQSLLHVNGNTYLYWFLQRPGRSPRLLIYRMSNLASGVPDRFSGSGSGTAFTLRISRVEAEDVGVYYCMQHLQYPFSFGSGTKLEMK
notes: Purified from mouse hybridoma
B10: TM-80 (antibody, V domains shown)
VH: B9 VH with F14P, S31T, S61N, K63E, I81M, T113A
VL: B9 VL with S8A, S12P, N35H, R47Q, R50Q, A75V, A85T, V90I, S102T, M111I
notes: Purified from mouse hybridoma
B11: TM-78 (antibody, V domains shown)
VH: QVQLQQPGAELVKPGASVKLSCKASGYTFTNHWMHWVRQRPGQGLEWIGNIDPSDSDTHYNHKFKDKATLIVDKSSSTAYLQLSSLTSEDSAVFYCARSRGGYYDYGEAMDYWGQGTSVTVSS
VL: B1 VL with A8T, V11I, T32V, I42L, H50Q, K56M
notes: Purified from mouse hybridoma
B12: TM-64 (antibody, V domains shown)
VH: QVQLQQPGAELVKPGASVKLSCKASGYTFTSYWMHWVKQRPGHGLEWIGNIDPSDSDTHYNQNFRGKATLTVDKFSTTAYMHLSSLTSEDSAVYYCARSRGGTYDYGEAMDYWGQGTSVTVSS
VL: B1 VL with I42L, Q47R, H50Q, K56M
notes: Purified from mouse hybridoma
B13: TM-54 (antibody, V domains shown)
VH: QVQMQQSGPVLVKPGASVTLSCKASGYTFTTYDLNWVKQRPGQGLEWIGWIYPRGGSTEYNEKFKGKATLTVDTSSSTAYMELHSLTSEDSAVYFCAKYSIYAMDYWGQGTSVTVSS
VL: DVLMTQTPLSLPVSLGDQASISCRSSQSIVHGNGNTYLEWYLQKPGQSPKLLIYKVSNRFSGVPDRFSGSGSGTDFTLKISRVEAEDLGVYYCFQGSHVPWTFGGGTKLEMK
notes: Purified from mouse hybridoma
B14: TM-60 (antibody, V domains shown)
VH: QVQLQQSGPELVKPGASVKLSCKASGYTFTSYDINWVKQRPGQGLEWIGWIYPRDGNTQYIEKLKGKATLTVDTSSSTAYMELHSLTSEDSAVYFCARWIFYAMDYWGQGTSVTVSS
VL: B13 VL with V99L, W101Y, M111I
notes: Purified from mouse hybridoma
B15: TM-76 (antibody, V domains shown)
VH: QVTLKESGPGILQPSQTLSLTCSFSGFSLSTSGMGVSWIRKPSGKGLEWLAHIFWDDDKRYNLFLKSRLTVSKDTSSNQVFLMITSVDTTDTATYYCARMGRQRDYFDYWGQGTSLTVSS
VL: QIILTQSPAIMSASLGEEITLTCSASLSISYVHWYQQKSGASPKLLIYGTSNLASGVPSRFSGSGSGTFYSLTISSVEAEDAADYYCHQWSIYRTFGGGTKLEMK
notes: Purified from mouse hybridoma
B16: TM-61 (antibody, V domains shown)
VH: QVQLQQSGAELAKPGASVKLSCKASGYTFTNYWMNWVKQRPGQGLEWIGYINPSSDYTKYNQNFKDKATLTADKSSSTAYMQLNSLTYEDSAVYYCTRWGGSRSYWYFDVWGAGTTVTVSS
VL: DIVMTQSPSSLSASAGEKVTMSCKSSQSLLNSGNQKNYLAWYQQKPGQSPKLLIYGASTRESGVPDRFTGSGSGTDFTLTISSVQAEDLAVYYCQNDSNYPFTFGGGTKLEMK
notes: Purified from mouse hybridoma
B17: TM-83 (antibody, V domains shown)
VH: QVQLQQPGTELVKPGALVKLSCKASGYTFTTYWIHWVKQRPGQGLEWIGNINPSNGNTKNNERFKTKATLTVDKSSSTAYMQLSSLTSEDSAVYYCVRGDYYGTSYPFWGQGTLVTVSS
VL: DVVMTQTPLSLPVSLGDQASISCRSSQSLVHSNGITYLHWYLQKPGQSPKLLIYKVSNRFSGVPDRFSGSGSGTDFTLKISRVEAEDLGVYFCSQSTHVPYTFGGGTKLEIK
notes: Purified from mouse hybridoma
B18: TM-90 (antibody, V domains shown)
VH: QVHLQQSGPELVKPGASVKLSCKASGYPFTSYDINWVKQRPGQGLEWIGWIYPRDGNAKYNEKFKGKATLTVDTSSSTAYMELHSLTSENSAVYFCARVSDYHGGYGMDYWGQGTSVTVSS
VL: B13 VL with I29F, N58H, S81T, G96N, W101H, M111I
notes: Purified from mouse hybridoma

Molecular target: T1, mouse TMEM106B (mouse, UniProt Q80X71 2-275)
T1 construct: Full-length cDNA transiently transfected into HEK293 cells; also called muTMEM106B; murine TMEM106B
Assay: flow cytometry, HEK293 cells transiently transfected with murine TMEM106B
Method: (§1) For screening of the hybridoma cell culture supernatants, humanTMEM106B-transfected HEK293 cells were aliquoted in 96-well round bottom plates (2×10⁵ cells per well) and incubated with 50 μL of hybridoma cell culture supernatant on ice for 30 minutes. […] Cell sorting was performed on a FACS Canto system (BD Biosciences) or iQue (Intellicyt), with sort gates drawn to exclude dead (i.e., propidium iodide-positive) cells. Median fluorescence intensity (MFI) of anti-mouse-APC MFI on TMEM106B+ HEK293 cells was calculated for each clone, and those displaying a signal of at least 2-fold over background compared to a secondary-antibody only well were taken forward for further analysis and characterization.

fold-change in binding over parental HEK293 cells [fold] | Binder
0.23 | B1
0.47 | B2
0.42 | B3
0.59 | B4
1.35 | B5
4.07 | B6
0.88 | B7
0.86 | B8
0.62 | B9
0.39 | B10
0.99 | B11
1.07 | B12
1.17 | B13
0.43 | B14
0.7 | B15
0.68 | B16
9.91 | B17

Molecular target: T2, cynomolgus (cyno) TMEM106B (cynomolgus, UniProt Q9NUM4 2-274 (human entry))
T2 construct: Full-length cDNA transiently transfected into HEK293 cells
Assay: flow cytometry, HEK293 cells transiently transfected with cyno TMEM106B
Method: as §1

fold-change in binding over parental HEK293 cells [fold] | Binder
4.49 | B2
1.15 | B4
2.15 | B5
7.13 | B6
1.49 | B7
2.93 | B8
8.24 | B9
4.33 | B10
6.88 | B11
7.12 | B12
6.27 | B13
1.32 | B18
2.63 | B14
4.35 | B15
5.15 | B16

Molecular target: T3, human TMEM106B (human, UniProt Q9NUM4 2-274)
T3 construct: Full-length cDNA transiently transfected into HEK293 cells; also called huTMEM106B
Assay: flow cytometry, HEK293 cells transiently transfected with human TMEM106B
Method: as §1

fold-change in binding over parental HEK293 cells [fold] | Binder
3.81 | B1
9.35 | B2
8.71 | B3
2.57 | B4
4.14 | B5
5.03 | B6
11.4 | B8
7.12 | B9
9.21 | B10
9.6 | B11
12.8 | B12
15.6 | B13
1.25 | B18
4.39 | B14
6.52 | B15
5.07 | B16
0.42 | B17

Reference: patent publication US20240174746A1 (Alector, published 2024)
